Results on 1 molecule are retold here after publication PMC7971329 (Oncoimmunology, 2021).

The target in this assay is human interleukin-2 (human, UniProt P60568). Kind of assay: SEC. A general note: Size exclusion chromatography separates by hydrodynamic size, large species first.
Sequence of human interleukin-2 (P60568 21-153): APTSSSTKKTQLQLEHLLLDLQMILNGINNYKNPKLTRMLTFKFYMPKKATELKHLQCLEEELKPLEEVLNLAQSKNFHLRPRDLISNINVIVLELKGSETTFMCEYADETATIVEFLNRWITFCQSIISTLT

B1: TCB2-Fab (Fab, V domains shown)
VH: EVQLQQSGAELARPGASVKLSCKASGYTFTTYWIQWVKQRPGQGLEWIGAIYPGDGDTRYIQNFKGKATLTADKSSSTAYMQLSSLASEDSAVYYCARSLATRGFYAMDYWGQGTSVTVSS
VL: DIVMTQSPASLSMAIGEKVTIRCITSTDIDDDMNWYQQKPGEPPKLLISEGNTLRPGVPSRFSSSGYGTDFVFTIENMLSEDVADYYCLQSDNLPYTFGGGTKLEIK
Take B1: the binding result is recorded as “binds”.
